Consider three compounds from patent US20220387556A1, “USE OF THE GDF-5 MUTANT FOR THE TREATMENT OF PAIN AND CARTILAGE DESTRUCTION” (Merck Patent GmbH, priority 2019, published 2022).

Series [1] addresses T1, BMPR-IB (Homo sapiens, UniProt O00238). As to the kind of experiment: in vitro binding affinity for BMPR-IB. An excerpt:
This can be achieved by specific substitutions of one or more amino acid residues relating to a BMPR-IB and/or BMPR-IA binding site in the amino acid sequence of a GDF-5 related protein.
The binding affinity of GDF-5 related proteins having specific substitutions is compared to the binding affinity of human wild-type GDF-5 related protein, in particular human wild-type GDF-5.

Series [2] addresses T1, BMPR-IB. As to conditions: in vitro; cited from earlier work.
For a further series, the target named is BMPR-IA (Homo sapiens, UniProt P36894). Conditions: in vitro; cited from earlier work.
Sequence of BMPR-IA (P36894 24-532): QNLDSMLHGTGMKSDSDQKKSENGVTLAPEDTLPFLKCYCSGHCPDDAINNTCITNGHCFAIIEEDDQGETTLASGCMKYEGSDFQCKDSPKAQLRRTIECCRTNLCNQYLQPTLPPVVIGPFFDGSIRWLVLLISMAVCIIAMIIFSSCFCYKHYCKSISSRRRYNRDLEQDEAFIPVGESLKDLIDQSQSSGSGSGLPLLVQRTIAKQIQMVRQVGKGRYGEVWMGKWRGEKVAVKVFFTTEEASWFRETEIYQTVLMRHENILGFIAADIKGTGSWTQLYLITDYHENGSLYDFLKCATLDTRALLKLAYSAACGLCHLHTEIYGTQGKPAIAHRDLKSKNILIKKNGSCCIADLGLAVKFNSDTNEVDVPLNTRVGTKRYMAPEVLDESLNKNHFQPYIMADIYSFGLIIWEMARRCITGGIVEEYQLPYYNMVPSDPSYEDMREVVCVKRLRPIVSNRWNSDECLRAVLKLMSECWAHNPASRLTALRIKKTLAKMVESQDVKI
The subject of the next series is OA patients. Conditions: cited from earlier work.
A further series deals with rabbit ACLT+pMx OA model. Put plainly: rabbit ACLT+pMx OA model, static incapacitance test, comparison with Triamcinolone and anti-NGF-antibody (KK-rabbit-17-01). Type of series: in vivo, New Zealand white (NZW) rabbits. How it is done:
Baseline incapacitance measurement was made 2 times prior to surgery. OA was induced by ACLT+pMx knee surgery in rabbits in the right knee joint in week 0. […] Weight bearing was measured using a contact-free static incapacitance measurement whereby plates measure pressure put on the operated and injected right hindlimb in comparison to the left unoperated hindlimb. Data are percent weight put on the right over the left hindlimb, whereby 50% corresponds to equal loading of both legs and 0% to load on the unoperated left limb only. Effect size was compared to clinically effective Triamcinolone treatment. 1.41 mg Triamcinolone correspond to human equivalent dose calculation based on metabolic body weight, synovial fluid volume and cartilage surface area.
Baseline incapacitance measurement was made 2 times prior to surgery. OA was induced by ACLT+pMx knee surgery in rabbits in the right knee joint in week 0. […] Weight bearing was measured using a contact-free static incapacitance measurement whereby plates measure pressure put on the operated and injected right hindlimb in comparison to the left unoperated hindlimb. Data are percent weight put on the right over the left hindlimb, whereby 50% corresponds to equal loading of both legs and 0% to load on the unoperated left limb only. […]

Series [3] has as its system primary human meniscus cells. Put plainly: NGF stimulated PGE2 release in primary human meniscus cells. Conditions: 10 ng/ml rhNGF, 2 days; 0.1 μM Dexamethasone, 0.1 μM Triamcinolone, 375 ng/ml anti-betaNGF antibody, 300 ng/ml R399E. Type of series: cell-based. How it is done: Primary meniscus cells from total knee replacement surgeries were freshly prepared one day post-surgery within the frame of an ethical permission. First, skin and muscle were removed to isolate the menisci. The menisci were transferred into a 10 cm dish filled with HAM's F12+1% P/S+1% Amphotericin B. The tissue was cut into small pieces of approximately 3×3 mm and transferred into a sterile beaker for digestion. Digestion was performed for 16 h in 50 ml of a 0.4% Collagenase in HAM's F12+1% P/S+1% Amphotericin solution at 37° C., 7.5% CO2 under constant stirring. After 16 h the solution was pipetted through a 100 μm filter followed by a 40 μm filter and then centrifuged for 5 min at 1400 g. The remaining pellet, containing the cells was resuspended in 20 ml of HAM's F12+1% P/S+1% Amphotericin+10% FCS. Cell number was counted, and cell viability was determined. Finally, 10,000 cells per well were seeded in a 96 well plate. Cells were cultivated up to 1 week to reach confluency. In between medium was exchanged once. […] The effect of the individual compounds was compared to cells which were stimulated with rhNGF only. After 2 days incubation, the supernatant was removed for determination of Prostaglandin E2 (PGE2) in the medium.

In general, pKd refers to the negative decadic logarithm of the Kd, by convention in mol/L.

pKd: −log10 of the molar value. Read-outs that look alike come from different tables or passages of the source.

T1 sequence (O00238 14-502): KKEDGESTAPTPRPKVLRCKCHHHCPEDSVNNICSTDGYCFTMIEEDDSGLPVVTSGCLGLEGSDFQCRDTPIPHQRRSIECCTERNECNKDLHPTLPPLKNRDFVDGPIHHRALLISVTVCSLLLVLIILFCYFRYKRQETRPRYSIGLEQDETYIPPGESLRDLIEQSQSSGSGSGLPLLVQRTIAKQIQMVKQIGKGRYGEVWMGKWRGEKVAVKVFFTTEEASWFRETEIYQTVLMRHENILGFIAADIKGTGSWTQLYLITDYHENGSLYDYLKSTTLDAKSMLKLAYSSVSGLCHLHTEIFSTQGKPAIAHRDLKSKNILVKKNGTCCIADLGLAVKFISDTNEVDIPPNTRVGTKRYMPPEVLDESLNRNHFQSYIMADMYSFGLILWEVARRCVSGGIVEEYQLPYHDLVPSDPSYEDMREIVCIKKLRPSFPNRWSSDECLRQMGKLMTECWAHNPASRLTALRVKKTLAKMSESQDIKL

“Wild-type GDF-5: morphogen, also known as bone morphogenetic protein-14 (BMP-14) or cartilage-derived morphogenetic protein-1 (CDMP-1)”: in the series with BMPR-IB [1], the “fold higher affinity for BMPR-IB as compared with BMPR-IA” value was 40- to 120 fold. Moreover, the figures for the pKd in the series with BMPR-IB [2] and with BMPR-IA were 10.57 to 11.10 and 8.96 to 9.00, respectively.

Regarding “tanezumab: anti-NGF (nerve growth factor) antibody (tanezumab, Pfizer) under clinical development for OA”, the “incidence of RPOA overall” value is 3.2% in the series with OA patients (tanezumab 2.5 mg arm) and 6.3% in the series with OA patients (tanezumab 5 mg arm).

For `C[C@]12C=CC(=O)C=C1CC[C@H]1[C@@H]3C[C@@H](O)[C@](O)(C(=O)CO)[C@@]3(C)C[C@H](O)[C@@]12F` [Triamcinolone], the “symptomatic effect compared to placebo (incapacitance)” value in the series with rabbit ACLT+pMx OA model (1.41 mg IA in week 1, week 2 post surgery) is on record as −11.6%. Moreover, the “effect on pain (incapacitance)” value in the series with rabbit ACLT+pMx OA model (1.41 mg IA once in week 1, 6 hours after injection) is listed as “significant effect on pain”. In series [3], the “rhNGF induced PGE2 in the medium” value is reported as “significantly inhibited”.
